In article PMC4317567 one finds Km of triple-helical peptidase activity (hydrolysis of fTHP-15), 27 °C, pH 7.5 data, which are given here for eight substances.

This assay has as its target fTHP-15 fluorogenic triple-helical peptide substrate.
Take “MT1-MMP catalytic domain, wild type (enzyme)”: the Km of triple-helical peptidase activity (hydrolysis of fTHP-15), 27 °C, pH 7.5 was determined as 8900 nM. Take MT1-MMP ectodomain E392A (enzyme): the Km of triple-helical peptidase activity (hydrolysis of fTHP-15), 27 °C, pH 7.5 turned out to be 1600 nM. Consider MT1-MMP ectodomain F360G (enzyme), for which the Km of triple-helical peptidase activity (hydrolysis of fTHP-15), 27 °C, pH 7.5 stood at 1700 nM. With MT1-MMP ectodomain N347A (enzyme), the Km of triple-helical peptidase activity (hydrolysis of fTHP-15), 27 °C, pH 7.5 came to 790 nM. Turning to MT1-MMP ectodomain R330A (enzyme), the Km of triple-helical peptidase activity (hydrolysis of fTHP-15), 27 °C, pH 7.5 worked out at 980 nM. To MT1-MMP ectodomain R343A (enzyme) belongs 4300 nM; to MT1-MMP ectodomain R345A (enzyme), 1700 nM; to “MT1-MMP soluble ectodomain, wild type (C127S-substituted) (enzyme)”, 820 nM.
